Test results as given in the supplement of paper PMC9170038.

Tested on: MS2 coat protein
Test: apparent KD of MS2 coat protein; designed switch direction (-1 OFF switch, 1 ON switch): -1; higher = weaker reporter binding
Outline: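 On Illumina chips, designed RNA switches with common flanks were made by stalled E. coli RNA polymerase. Titrations with SNAP-549-labelled MS2 coat protein, doubling from 0.7 or 1.5 nM to 3 µM, were done with no input, with 200 uM small-molecule ligand, or with an oligonucleotide input. Apparent KD is the median per design over clusters, from curve fits of normalised cluster fluorescence.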

[1] = Eterna round: R95, input ligand: FMN 200 uM
[2] = Eterna round: R95, input ligand: microRNA oligo, concentration not stated
[3] = Eterna round: R95, input ligand: none
[4] = input ligand: microRNA oligo, concentration not stated

Sequence | apparent KD of MS2 coat protein [2] [µM] | apparent KD of MS2 coat protein (input ligand: FMN 200 uM) [µM] | apparent KD of MS2 coat protein (input ligand: none) [µM] | apparent KD of MS2 coat protein [4] [µM] | also measured
UACUAUAAGGAGGAUAUCGUAUCGGAAACGAUACGAGAAGGCUUAACAUGAGGAUCACCCAUGUUCUUCAAUAU [Fiskers Ex 6 - 26] (puzzle: Exclusion 6) | 0.0162 | – | – | – | apparent KD of MS2 coat protein [1]: 0.016 µM; apparent KD of MS2 coat protein [3]: 0.0146 µM
UAUUAGCAAGCUAGAUCCCACAUGAGGAUCACCCAUGUGCUCGUCUUAUAAGGUACUGUGACGAAAGUCACGGUACC [Sensor 3, v1 - 96] (puzzle: Sensor v3, turn-off variant 1) | 0.798 | – | – | – | apparent KD of MS2 coat protein [1]: 0.0568 µM; apparent KD of MS2 coat protein [3]: 0.0575 µM
CAGCUGAAAGUGAGGAUAUAGACUGCCUCGGCAGUCUAGAAGGCACAUGAGGAUCACCCAUGUCUCAACAGCUG [BmEx4/1-B2] (Eterna round: R97, puzzle: Brourd's mod of Exclusion 4) | – | 0.0702 | 0.0113 | – | –
UUUUUUUUGGUAAGGAUAUGAUGCAGGAAACUGCGUCAGAAGGUACAUGAGGAUCACCCAUGUUAAUUUUUUUU [Explosion 11 - Jieux - Brourd's mod of Exclusion 4] (Eterna round: R97, puzzle: Brourd's mod of Exclusion 4) | – | 0.023 | 0.0186 | – | –
UUGUCUAAUGUGAGGAUAUGCUGGUCCAUAGAUCAGCAGAAGGCACAUGAGGAUCACCCAUGUGAUAACACAAU (Eterna round: R97, puzzle: Brourd's mod of Exclusion 4) | – | 0.296 | 0.0213 | – | –
UAUAUAUAGUAAGGAUAUGUAUUAAUUUUAUGAACAGAAGGUACUGACAUGAGGAUCACCCAUGUUUUAGUGUGGGCAUGUAGA [JMF's solution 91] (Eterna round: R96, puzzle: Exclusion NG 1) | – | – | – | 0.0655 | –
UUUUUUGUUGUGAGGAUAUCGUUGUGGAUGUGGAUCGAGAAGGCACAUGAGGAUCACCCAUGUUUGUUGUGGUU [JR_BMOE4_Sub085] (puzzle: Brourd's mod of Exclusion 4) | 0.0867 | – | – | – | –
CCCAGUUAGGAAGGAUAUUGUACAUGAGGAUCACCCAUGUAAUAAAUGAGGAUCUCGGGUGUCUACAAGAAGGUCCGGAUAGGC [Ostracism 12 - Jieux - Exclusion NG 2] (Eterna round: R96, puzzle: Exclusion NG 2) | – | 0.104 | 0.0464 | 0.0387 | –
AACUAACAUGUAGGAUAUGCGUGGCGAAGCUAUGCAGAAGGACAUGAGGAUCACCCAUGUUUUAGCGUCUGCGUACAGAUGCAU [JL ENG1 1.41] (Eterna round: R96, puzzle: Exclusion NG 1) | – | 0.146 | 0.0208 | 0.0166 | –
CACCGUUACAGAGGAUAUCGUACAUGAGGAUCACCCAUGUAAUAAAUGAGAAUUUCGGAUGUAUGCGAGAAGGCUGGAAUCGGC [Ostracism 37 - Jieux - Exclusion NG 2] (Eterna round: R96, puzzle: Exclusion NG 2) | – | – | – | 0.0207 | –
CGCUGGUGAGGAUAUGGGUGUUUUUACAUGAGGAUCACCCAUGUGGAGUAGCAUGUGGGUCCAGAAGGCGCGAGUG [-24.2, -22.5 kcal, 21% A] (Eterna round: R97, puzzle: Exclusion 5) | – | 0.398 | 0.309 | – | –
CCGGAAAUGGAGGAUAUAGGAGUCGAUAGACACCUAGAAGGUCAUACAUGAGGAUCACCCAUGUGUCCUACCGG [Fiskers Ex 6 - 79] (puzzle: Exclusion 6) | 0.0129 | – | – | – | –
CUAGCGAGUGUAGGAUAUCGGACUGUUUCAGUCUGAGAAGGACAUGAGGAUCACCCAUGUGAAGCUACGUGAGUAGCACGCUAG [JL ENG1 3.87] (Eterna round: R96, puzzle: Exclusion NG 1) | – | 0.0745 | 0.0245 | 0.0183 | –
AUACCAUGCCGCCUAAUAGCUUUUUGCCCGUCUUAUAAAACAUGAGGAUCACCCAUGUAAAACUCGUGGCGUGACCC [Quarre] (puzzle: Sensor v3, turn-off variant 2) | 0.0219 | – | – | – | apparent KD of MS2 coat protein [1]: 0.156 µM; apparent KD of MS2 coat protein [3]: 0.195 µM
UAAUACUCAGGAUAUAUGAUGUGAAACAUGAGGAUCACCCAUGUAAUAUUAUGGAUGUAAAUAGAAGGGAGAUUAU [Mat - Exclusion 5 - JL mod - D20] (puzzle: Exclusion 5) | 0.0554 | – | – | – | apparent KD of MS2 coat protein [1]: 0.0533 µM; apparent KD of MS2 coat protein [3]: 0.063 µM
UACAUGAGGAUCACCCAUGUUUUGUCGUGUAUGGUAUUUAUCUAGGAUAUCAAUGUAUUUAUUCAUGAGAAGGAGAAUAUUAAU [JMF's solution 48] (Eterna round: R96, puzzle: Exclusion NG 3) | – | 0.0324 | 0.0337 | 0.0283 | –
CUUUUGUGAGGAUAUCAGUAGUAAAUAAAUAAAAUUAAUACUGAGAAGGCACAUGAGGAUCACCCAUGUUCCUC [Mat - Exclusion 4 - Mod of Salish - D63] (puzzle: Exclusion 4) | 0.033 | – | – | – | –

Sequence | apparent KD of MS2 coat protein [2] [µM] | apparent KD of MS2 coat protein (input ligand: FMN 200 uM) [µM] | apparent KD of MS2 coat protein (input ligand: none) [µM] | apparent KD of MS2 coat protein [4] [µM] | also measured
CUUGUUUAUGUAGGAUAUGCCUGGCGUGCCUUUGCAGAAGGACAUGAGGAUCACCCAUGUAUUGCGGUCUGCGUUCAGAUCGCA [salish99_ExNG1_r4_045] (Eterna round: R96, puzzle: Exclusion NG 1) | – | 0.0346 | 0.0345 | 0.0232 | –
AUCCUGAGGCUUUGCUUUAGGCGUACAUGAGGAUCACCCAUGUAGGAUAUGGUAGGCUUUGCUUACCAGAAGGACAUUAUGAUC [JL EXNG3 1.19] (Eterna round: R96, puzzle: Exclusion NG 3) | – | 0.243 | 0.043 | 0.0441 | –
GUCUACAUGACAUGAGGAUCACCCAUGUGUUAUAUUUUUACUAAGGAUAUAUUUUUAAUGUUGAGAUAGAAGGUAGUUUCGGUC [JR_ExcNG3_Sub093] (Eterna round: R96, puzzle: Exclusion NG 3) | – | – | – | 0.0328 | –
CUAGAUCUUCGGAUCUAGUACAUGAGGAUCACCCAUGUUACGAGUUGAUUUUCAUACAAGCUUUUUGCUCGUCUUAU [Sensor v3 - Turn-off variant 1 - 28] (puzzle: Sensor v3, turn-off variant 1) | 0.0844 | – | – | – | apparent KD of MS2 coat protein [1]: 0.134 µM; apparent KD of MS2 coat protein [3]: 0.153 µM
CAAGUCCUUUACUACAAGCACAUGAGGAUCACCCAUGUCAAAUUUGUGCCUCGGUACGGAAGCUCGUCUUUUCGUAG [Eternabot (L2) Solution 1] (Eterna round: R97, puzzle: Sensor, turn-off variant 1) | – | 0.03 | 0.0356 | – | –
GCCGAAAAAGUGAGGAUAUACCUAUGGAUACAUAGGUAGAAGGCACAUGAGGAUCACCCAUGUGUCCUAACGGC [Eli bmx4 4.29] (Eterna round: R97, puzzle: Brourd's mod of Exclusion 4) | – | 0.018 | 0.0152 | – | –
GUAGAGUAAGGAUAUUGUGAAUAGGAUAGAAUGGUUAGAAACAAGAAGGUACAUGAGGAUCACCCAUGUAAUGU [Excluse me!!!! 20 - Jieux - Exclusion 4] (puzzle: Exclusion 4) | 0.0213 | – | – | – | –
UGAUCAGACCGAGGAUAUAUAUGUAGGACGCACGUGAGUGCGUCCAGUACAUGAGGAUCACCCAUGUAGAAGGCGGUCUGAUCU [JL ENG2 1.96] (Eterna round: R96, puzzle: Exclusion NG 2) | – | 0.0203 | 0.0136 | 0.00999 | –
UCAUACGAUGAGGAUAUCUCCGUUAAAGUAUGUAGAGAAGGCGUUACAUGAGGAUCACCCAUGUUUGUGGGCAG [Ex-6 Malc#9] (Eterna round: R96, puzzle: Exclusion 6) | – | – | – | 0.25 | –
CGAAAUGCCCGUGGCCACAAGCUUUUUGCUUGUCUUACUACAUGAGGAUCACCCAUGUACCAUGGGCUCCUGACCAU [Rixele] (puzzle: Sensor v3, turn-off variant 2) | 0.0116 | – | – | – | apparent KD of MS2 coat protein [1]: 0.0136 µM; apparent KD of MS2 coat protein [3]: 0.0112 µM
CCGUUCCGUGUAGGAUAUUGGCCUUCCUCGGGCCGAGAAGGACAUGAGGAUCACCCAUGUAUGCUAUUAUCGCGCGUGGCGCCC [Design 98] (Eterna round: R96, puzzle: Exclusion NG 1) | – | 0.129 | 0.0398 | 0.0324 | –
GUAAUGUGAGGAUAUGGUAAAGAUAAGAUGAUGAAAGAACUCCAGAAGGCACAUGAGGAUCACCCAUGUAGAUG [Mat - Exclusion 4 - Mod of JL - D27] (puzzle: Exclusion 4) | 0.0261 | – | – | – | –
GUGUACGGAGGAUAUAUAUGGGCAGCAUACGCUGCAGCUUCACAUGAGGAUCACCCAUGUAGAAGGCUGUGCAC [JL-ex2-2.10 Brourd mod] (puzzle: Exclusion 2) | 0.0199 | – | – | – | –
UCCAGACAUGAGGAUCACCCAUGUGAGGAUAUGAUGCGAUCGUCGAAAGACGAUAGCAUCAGAAGGCACGUAUG [Fiskers Ex 1 - 15] (puzzle: Exclusion 1) | 0.0326 | – | – | – | –
GGCCCACAUGAGGAUCACCCAUGUGAGGAUAUGUUAGUUUCGGCGAAAGCCGAAAUUAACAGAAGGCACAGGCC [JR_Exclusion1_Sub022] (puzzle: Exclusion 1) | 0.0108 | – | – | – | –
UCCAAGACAGGAUAUCUAGAGCCAAACAUGAGGAUCACCCAUGUGAAUCUCAGCAAACGCAGAGAAGGGUCAAAAU [Orisinxe] (puzzle: Exclusion 5) | 0.0232 | – | – | – | apparent KD of MS2 coat protein [1]: 0.0301 µM; apparent KD of MS2 coat protein [3]: 0.0309 µM
GCUGGUCAAGGAUAUACAUGAGGAUCACCCAUGUGGUCACGUGACGAUAGUCACGAAUGUAGAAGGUGACCAGC [E3/3-C1] (Eterna round: R97, puzzle: Exclusion 3) | – | 0.0511 | 0.26 | – | –
